This data set deals with T1, GAF (GAGA-binding factor), His-GAF (Drosophila melanogaster), Q08605-2.
T1 sequence: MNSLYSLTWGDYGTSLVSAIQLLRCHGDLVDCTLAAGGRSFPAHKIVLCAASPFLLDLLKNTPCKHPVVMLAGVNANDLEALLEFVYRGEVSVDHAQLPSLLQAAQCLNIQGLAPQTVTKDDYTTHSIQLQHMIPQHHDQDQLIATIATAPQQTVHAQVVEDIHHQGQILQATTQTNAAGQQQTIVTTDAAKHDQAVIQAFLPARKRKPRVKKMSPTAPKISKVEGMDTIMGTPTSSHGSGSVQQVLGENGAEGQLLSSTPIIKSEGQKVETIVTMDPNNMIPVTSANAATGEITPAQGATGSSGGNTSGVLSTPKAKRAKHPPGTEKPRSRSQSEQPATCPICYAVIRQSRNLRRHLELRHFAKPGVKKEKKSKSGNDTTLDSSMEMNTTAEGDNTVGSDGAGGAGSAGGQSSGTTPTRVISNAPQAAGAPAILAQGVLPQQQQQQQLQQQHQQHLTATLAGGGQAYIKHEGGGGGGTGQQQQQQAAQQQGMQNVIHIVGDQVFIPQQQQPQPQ
As to the kind of experiment: EMSA. Particulars: GAF: band shift buffer of cited ref 25 (composition not given), poly(dI-dC) 10 ng, 4.5% acrylamide Tris/borate/EDTA gel; HSF: 10 ug extract protein, as in ref …. For orientation: Mobility shift assays separate free from complexed probe on a gel.

Take “CTGTTCTCGTTGCTTCGAGAGAGCGCGCCTCGAATGTTCGCGAAAAGAGCGCCGGAGTATAAATAGAGGAGCTTCGTCGACGGAGAGTCAA (double strand) [hsp70Aa promoter PCR fragment]”: the binding result was “binds”.

For the origin of these results see publication PMC4336284.
